Laboratory results taken from the MegaScale stability set (Tsuboyama et al. 2023).

B1: EEHEE_rd3_0130 (parent)
chain: TKIIVNGKTFTAPTEEEAQKIAEKLAKKAGLTVHKKNGTFELK
B2: 5KPH (parent)
chain: EEKRQVKQVAKEKLLEQSPNSKVQVRRVQKQGNTIRVELELRTNGKKENYTVEVERQGNTWTVKRITRT

Variants of: B1
Experiment: folding stability dG (cDNA display proteolysis); higher = more stable
Settings: PBS, room temperature

Folding stability dG [kcal/mol], by site and new letter:
L42: R -0.081; T 0.203; Y 0.019; V 0.79; F -0.203
T1: A 0.581; K 0.145; I 1.37; E -0.989; N 0.378
A29: R 1.04; S 0.857; H 2.12; P -0.744; C 2.56; L 2.45; K 0.837
P13: K 0.854; G 0.731; M 0.526; D 0.664; H 0.651; S 0.761
Q19: F 0.959; M 0.872; D -0.048; G 0.357; W 1.12; Y 1.03; I 0.665; P -0.468; C 1.25; N 0.383
N37: M 0.06; F -0.371; K 0.391; Q 0.281; D 0.873
E41: P 0.028; Q 0.186; T -0.004; C 1.19; M 0.498
E16: V 0.573; S 0.797; L 0.722; A 0.911; D 0.611; P 0.061; I 0.723
K20: S 0.688; E 0.663; Y 0.745; P -0.378
I21: Q -0.043; M 0.647; T -0.08; D -0.719; H -0.132; Y 0.645; F 1.01; P -0.76; W 1.3
G7: T -0.032; W 0.187; E -0.721; L -0.186
A18: L -0.286; I -0.353; G 0.375; D -0.679
E23: N 0.832; C 1.52; L 0.894; G 0.246; D 0.78
G38: H -0.107; P 0.071; W -0.047; Q -0.217; A -0.621; L -0.199
E15: N 0.31; D 0.325; I 0.689; K 0.359; H 0.545; R 0.366; Y 1.42
I3: H -0.416; E -0.908; M -0.368; P -0.552; T -0.896
K24: Q 0.873; L 1.11; H 0.996; N 0.76; I 0.99; S 0.873
V5: F 1.31; W 1.48; L 0.73; Y 1.4; N -0.497; D -0.878; Q -0.462; K -0.361
I4: N -0.074; R 0.615; L 0.583; G -0.461; D -0.441; V 0.695
K35: L 0.661; G 0.063; I 0.718; D -0.099; T 0.197; Y 1.55; M 0.631; N 0.482
T11: S 0.624; Y 1.42; Q 0.319; F 1.38; A 0.154; K 0.248; D -0.3; I 1.03; W 1.68; M 0.947
L31: E -0.89; K -0.636; I -0.35; S -0.591
T39: W 1.3; Y 1.57; H 1.33; A 1.47; M 1.14; E 0.778; V 1.39
K8: W 1.53; T 0.475; H 0.948; Q 0.67
F40: E 0.251; A -0.34; H 0.087; V 0.436; R -0.061; L 0.724; C 0.982; Q 0.083
N6: R 0.555; C 2.05; G 1.02
G30: S 0.137; V -0.549; I -0.078; A -0.039; Y -0.036; L -0.179
V33: I 1.13; N -0.582; R -0.007; Q -0.574; T 0.223; M 0.559; W 0.592; S -0.023
K36: G 0.596; V 1.52; M 0.882
L25: A -0.68; Q -0.482; H -0.294; M 0.784
H34: C 1.31; G 0.117; P -0.455; L 0.902
A26: N -0.556; Y -0.009; F 0.197; C 0.45; E -0.437; V -0.292
T32: Q 0.523; G -0.284; Y 0.023; V 1.02; H 0.159
E17: A 0.997; P -0.793; C 1.46; K 0.72; R 0.677
K28: D 0.738; M 1.05; G 0.475; E 0.862; Y 1.06; Q 0.873; A 1.09; N 0.582
A12: M 1.02; F 1.81; E -0.465; T 0.083; G 0.091
T14: V -0.396; S 0.86; Y -0.419; D 0.286; F -0.544
K2: M 0.746; P 0.169; V 0.501; R 0.793; A 0.458; E 0.085
A22: V 0.71; Q -0.657; H -0.772; T -0.186; W 0.017
K43: N 0.532; L 1.18; A 0.626; W 1.16
F10: Y 0.851; I 0.454
K27: C 1.03; H 0.537; S 0.587; G 0.228; T 0.52
T9: W 0.968; R -0.066; H 0.114

Variants of: B2
Experiment: as above
Settings: PBS, room temperature

Folding stability dG [kcal/mol] of substitutions, site by site:
E1: A 3.75; C 3.69; D 3.52; F 3; G 3.49; H 3.61; I 2.88; K 3.85; L 3.06; M 3.33; N 3.37; P 3.19; Q 3.64; R 3.25; S 3.56; T 3.46; V 3.38; W 2.91; Y 2.92
E2: A 3.63; C 3.69; D 3.9; F 3.16; G 3.24; H 3.5; I 3.93; K 2.91; L 3.66; M 3.58; N 3.28; P 2.94; Q 3.9; R 3.19; S 3.47; T 3.74; V 3.73; W 4.05; Y 3.08
K3: A 4.28; C 4.21; D 4.41; E 4.84; F 4.65; G 3.73; H 4.2; M 4.84; N 4.25; P 3.01; Q 4.19; R 4.07; S 4.17; T 4.31; V 4.72; W 4.88; Y 4.74
R4: A 3.86; C 3.57; D 3.98; E 4.22; F 3.64; G 3.38; H 3.79; I 3.04; K 3.9; L 3.54; M 3.84; N 3.72; P 2.55; Q 3.81; S 3.72; T 3.69; V 3.34; W 3.79; Y 3.64
Q5: A 3.93; C 3.54; D 3.73; E 3.88; F 3.83; G 3.64; H 3.77; I 3.95; K 3.86; L 3.9; M 4.07; N 3.54; P 2.86; R 4.19; S 3.84; T 3.93; V 3.73; W 3.62
